The results in this text go back to the supplement of paper PMC9112550, “Optimization of the antimicrobial peptide Bac7 by deep mutational scanning” (BMC Biology, 2022).
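Further: peptides expressed intracellularly from a pBAD plasmid library in pooled LB shake-flask culture, induced with 0.3% L-arabinose, DNA abundance read by NGS, three biological replicates, DESeq2 with apeglm shrinkage.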

In this data set the test system is Escherichia coli TOP10. Briefly: shrunken log2 fold change of peptide-encoding DNA abundance (4.5 h post-induction vs induction); higher = less antimicrobial activity (less host growth inhibition). The following applies: time post-induction: 4.5 h; library: site-saturation at positions 5, 18, 19, 20.
In the case of RRIRWRPPRLPRPRPRPAIPPRP, the “shrunken log2 fold change” value stood at 0.332. For RRIRMRPPRLPRPRPRPWSKPRP the value was 0.0409; for RRIRMRPPRLPRPRPRPYKYPRP, -0.851. The value for RRIRMRPPRLPRPRPRPYMDPRP was 0.000784.

For the sequence RRIRRRPPRLPRPRPRPIEGPRP, the “shrunken log2 fold change” value amounted to 0.0101. The value for RRIRKRPPRLPRPRPRPAEWPRP was 0.0965; that for RRIRPRPPRLPRPRPRPADAPRP was 0.29; that for RRIRGRPPRLPRPRPRPVSSPRP was 0.0973. For RRIRCRPPRLPRPRPRPFIFPRP the value was -0.425. Turning to RRIRERPPRLPRPRPRPVCPPRP, the “shrunken log2 fold change” value was -0.162. The value for RRIRYRPPRLPRPRPRPCGHPRP was -0.0238; that for RRIRMRPPRLPRPRPRPWWRPRP was 0.494. On to RRIRYRPPRLPRPRPRPHMTPRP, for which the “shrunken log2 fold change” value is -0.845.

As to RRIRSRPPRLPRPRPRPHYIPRP, the “shrunken log2 fold change” value is -0.556. The value for RRIRKRPPRLPRPRPRPMVKPRP was 0.427. The value for RRIRMRPPRLPRPRPRPALAPRP was 1.08.

For the sequence RRIRWRPPRLPRPRPRPYNTPRP, the “shrunken log2 fold change” value was -0.162. As for RRIRRRPPRLPRPRPRPYYNPRP, the “shrunken log2 fold change” value was -0.807.

In the case of RRIRHRPPRLPRPRPRPQDDPRP, the “shrunken log2 fold change” value turned out to be 0.0649. As for RRIRTRPPRLPRPRPRPPTKPRP, the “shrunken log2 fold change” value is 0.674. For RRIRLRPPRLPRPRPRPKEEPRP the value was -0.0533; for RRIRGRPPRLPRPRPRPPSQPRP, 0.882; for RRIRNRPPRLPRPRPRPRNWPRP, -0.149. As for RRIRGRPPRLPRPRPRPSGGPRP, the “shrunken log2 fold change” value came out at 0.391. As to RRIRTRPPRLPRPRPRPHLNPRP, the “shrunken log2 fold change” value is -0.358. The value for RRIRMRPPRLPRPRPRPRLMPRP was -0.0423; that for RRIRYRPPRLPRPRPRPKKDPRP was -0.719; that for RRIRYRPPRLPRPRPRPYPWPRP was 0.0116.

Turning to RRIRFRPPRLPRPRPRPELYPRP, the “shrunken log2 fold change” value was 0.0341. On to RRIRFRPPRLPRPRPRPHKVPRP, for which the “shrunken log2 fold change” value is -0.196.

Regarding RRIRYRPPRLPRPRPRPLPRPRP, the “shrunken log2 fold change” value was found to be 0.00472. The value for RRIRLRPPRLPRPRPRPALIPRP was -0.00882; that for RRIRKRPPRLPRPRPRPGEVPRP was 0.268. For RRIRVRPPRLPRPRPRPGIRPRP the value was -0.0476; for RRIRHRPPRLPRPRPRPLTWPRP, -0.135. The value for RRIRPRPPRLPRPRPRPQGHPRP was 0.05; that for RRIRMRPPRLPRPRPRPTSWPRP was 0.834; that for RRIRYRPPRLPRPRPRPTLRPRP was -0.484. RRIRTRPPRLPRPRPRPADGPRP: the “shrunken log2 fold change” value is -0.0563. The value for RRIRPRPPRLPRPRPRPHYWPRP was -0.41; that for RRIRHRPPRLPRPRPRPYVRPRP was 0.017; that for RRIRSRPPRLPRPRPRPFPMPRP was -0.264. For the sequence RRIRHRPPRLPRPRPRPIHAPRP, the “shrunken log2 fold change” value is -0.173. For RRIRPRPPRLPRPRPRPNDVPRP the value was -0.206; for RRIRTRPPRLPRPRPRPTKWPRP, -0.0752; for RRIRARPPRLPRPRPRPWGSPRP, 0.115. For RRIRQRPPRLPRPRPRPAKQPRP the value was 0.0569; for RRIRPRPPRLPRPRPRPQNDPRP, -0.371; for RRIRKRPPRLPRPRPRPWQMPRP, 0.0764. For RRIRLRPPRLPRPRPRPNTGPRP the value was -0.359; for RRIRPRPPRLPRPRPRPHYRPRP, -0.112.

Consider RRIRGRPPRLPRPRPRPCIKPRP, for which the “shrunken log2 fold change” value was determined as 0.268. The value for RRIRLRPPRLPRPRPRPLIIPRP was -0.631; that for RRIRSRPPRLPRPRPRPYLLPRP was -0.613; that for RRIRFRPPRLPRPRPRPSPFPRP was 0.0724.

Consider RRIRERPPRLPRPRPRPRTVPRP, for which the “shrunken log2 fold change” value was 0.0995. Regarding RRIRERPPRLPRPRPRPEHSPRP, the “shrunken log2 fold change” value is -0.312. The value for RRIRPRPPRLPRPRPRPAYCPRP was -0.215. RRIRVRPPRLPRPRPRPQSCPRP: the “shrunken log2 fold change” value was -0.342. For RRIRLRPPRLPRPRPRPKKTPRP the value was 0.0684; for RRIRMRPPRLPRPRPRPHNCPRP, -0.0504; for RRIRPRPPRLPRPRPRPNVFPRP, -0.21.

RRIRDRPPRLPRPRPRPFSFPRP: the “shrunken log2 fold change” value was -0.763.

In the case of RRIRVRPPRLPRPRPRPNWSPRP, the “shrunken log2 fold change” value was -0.114. For the sequence RRIRKRPPRLPRPRPRPSLTPRP, the “shrunken log2 fold change” value was -0.0632. The value for RRIRFRPPRLPRPRPRPQFVPRP was -0.434; that for RRIRNRPPRLPRPRPRPIWVPRP was -0.0659; that for RRIRSRPPRLPRPRPRPQGLPRP was 0.0641. The value for RRIRPRPPRLPRPRPRPTLDPRP was 0.172; that for RRIRNRPPRLPRPRPRPSLCPRP was 0.0773. For RRIRNRPPRLPRPRPRPFQYPRP the value was -0.0242. For RRIRQRPPRLPRPRPRPPKEPRP, the “shrunken log2 fold change” value was -0.168. Take RRIRARPPRLPRPRPRPPDFPRP: the “shrunken log2 fold change” value was 0.708. In the case of RRIRFRPPRLPRPRPRPIALPRP, the “shrunken log2 fold change” value was -0.222.

Consider RRIRMRPPRLPRPRPRPMGMPRP, for which the “shrunken log2 fold change” value is -0.103.

Regarding RRIRIRPPRLPRPRPRPACVPRP, the “shrunken log2 fold change” value turned out to be 0.0215. For the sequence RRIRMRPPRLPRPRPRPYFDPRP, the “shrunken log2 fold change” value was -1.09. For RRIRFRPPRLPRPRPRPENDPRP the value was 0.0619; for RRIRYRPPRLPRPRPRPCMSPRP, -0.282. Turning to RRIRLRPPRLPRPRPRPEDCPRP, the “shrunken log2 fold change” value came out at 0.0408. Turning to RRIRHRPPRLPRPRPRPSWEPRP, the “shrunken log2 fold change” value is -0.0671.

Take RRIRERPPRLPRPRPRPCPVPRP: the “shrunken log2 fold change” value was found to be 0.0397. Turning to RRIRQRPPRLPRPRPRPFCNPRP, the “shrunken log2 fold change” value amounted to 0.0828. Consider RRIRWRPPRLPRPRPRPNFCPRP, for which the “shrunken log2 fold change” value amounted to 0.0758. For RRIRWRPPRLPRPRPRPMWDPRP the value was 0.157; for RRIRCRPPRLPRPRPRPNGDPRP, 0.105. The value for RRIRTRPPRLPRPRPRPDSAPRP was 0.0773. For RRIRQRPPRLPRPRPRPIVAPRP the value was -0.00611; for RRIRSRPPRLPRPRPRPTPDPRP, 0.441; for RRIRYRPPRLPRPRPRPVCSPRP, -0.484. Turning to RRIRVRPPRLPRPRPRPTFLPRP, the “shrunken log2 fold change” value was -0.0973. For RRIRMRPPRLPRPRPRPCFDPRP the value was 0.0386. RRIRMRPPRLPRPRPRPEGAPRP: the “shrunken log2 fold change” value is 3.32.

As for RRIRGRPPRLPRPRPRPWVPPRP, the “shrunken log2 fold change” value turned out to be 0.0241. For RRIRTRPPRLPRPRPRPILFPRP the value was -0.209; for RRIRTRPPRLPRPRPRPPVLPRP, 0.0185; for RRIRARPPRLPRPRPRPAKPPRP, 0.127.

For RRIRYRPPRLPRPRPRPDLFPRP, the “shrunken log2 fold change” value was 0.108. For the sequence RRIRCRPPRLPRPRPRPRHCPRP, the “shrunken log2 fold change” value turned out to be 0.423. The value for RRIRFRPPRLPRPRPRPQRKPRP was 0.089; that for RRIRNRPPRLPRPRPRPKNEPRP was -0.0366. For RRIRNRPPRLPRPRPRPFRLPRP the value was -0.505; for RRIRDRPPRLPRPRPRPSQDPRP, -0.0683; for RRIRNRPPRLPRPRPRPWPHPRP, -0.0312. The value for RRIRPRPPRLPRPRPRPRDEPRP was 0.0975; that for RRIRLRPPRLPRPRPRPATKPRP was 0.0731; that for RRIRKRPPRLPRPRPRPLVGPRP was 0.0773. For RRIRTRPPRLPRPRPRPWKVPRP, the “shrunken log2 fold change” value is -0.00663. For RRIRRRPPRLPRPRPRPKYRPRP, the “shrunken log2 fold change” value was -0.000605. The value for RRIRARPPRLPRPRPRPCRLPRP was -0.0461. For RRIRHRPPRLPRPRPRPQNSPRP the value was -0.423; for RRIRKRPPRLPRPRPRPHGFPRP, 0.056; for RRIRFRPPRLPRPRPRPHNVPRP, 0.0631.

For RRIRTRPPRLPRPRPRPALKPRP, the “shrunken log2 fold change” value was 0.206.

With RRIRKRPPRLPRPRPRPHCMPRP, the “shrunken log2 fold change” value came out at 0.159. For the sequence RRIRQRPPRLPRPRPRPFFYPRP, the “shrunken log2 fold change” value was -0.257. The value for RRIRCRPPRLPRPRPRPGPWPRP was 0.422; that for RRIRPRPPRLPRPRPRPSIQPRP was -0.696.

For RRIRNRPPRLPRPRPRPQEPPRP, the “shrunken log2 fold change” value was found to be 0.084. The value for RRIRNRPPRLPRPRPRPSPIPRP was -0.561.

Consider RRIRLRPPRLPRPRPRPYPYPRP, for which the “shrunken log2 fold change” value is -0.076.

As to RRIRLRPPRLPRPRPRPKTEPRP, the “shrunken log2 fold change” value amounted to 0.14.

On to RRIRPRPPRLPRPRPRPLKIPRP, for which the “shrunken log2 fold change” value was -0.169. For RRIRRRPPRLPRPRPRPQKRPRP the value was 0.13; for RRIRKRPPRLPRPRPRPHQAPRP, -0.137.
